Measured values published in patent publication US8629107B2, “Genes and proteins associated with angiogenesis and uses thereof” (National Jewish Health, priority 2005, dated 2014).

Molecular target: T1, Notch1 (Mus musculus, UniProt Q01705)
T1 construct: expressed in transfected cells; host or cells: human kidney 293T cells, transient transfection (LT-1 liposomes)
Assay: Notch1 processing assay in human kidney 293T cells
Type: cell-based
Conditions: 293T cells co-transfected with Notch1, vs cells solely expressing Notch1; anti-Myc immunoblot
Description: To monitor the effects of MAGP-2 on the processing and S3 cleavage of Notch1, human kidney 293T cells were transiently transfected in 6-well plates with LT-1 liposomes containing 0.5 μg/well of Notch1 (pCS2+mN1FL6MT), 0.5 μg/well Jagged-1 (pCS2+Jag1-6MT), or 1.5 μg/well of MAGP-2 (pcDNA3.1-MAGP-2/Myc-His) in all combinations. Forty-eight h post-transfection, the cells were washed with ice-cold PBS, lysed immediately in Buffer H/1% Triton X-100 [500 μl/well; (Schiemann et al, 2002)], and incubated on ice for 30 min. Afterward, insoluble material was removed by microcentrifugation and 100 μl of the resulting clarified extract was fractionated through 6% SDS-PAGE gels. The fractionated proteins were transferred electrophoretically to nitrocellulose and probed with anti-Myc 9E10 monoclonal antibodies (Covance, Princeton, N.J.) to visual Notch1 cleavage species.
Activation of Notch1 signaling involves three proteolytic processing events, termed S1, S2, and S3, that produce three distinct Notch1 fragments, termed TMIC, NEXT, and NICD, respectively (Mumm et al, 2000). […] The inventors tested this possibility by transiently transfecting human 293T cells with cDNAs encoding Myc-tagged versions of Notch1, Jagged-1, and MAGP-2 in all combinations, and subsequently monitored changes in NICD production and accumulation by immunoblot analyses using anti-Myc monoclonal antibodies. […]

T1 sequence (Q01705 19-2531): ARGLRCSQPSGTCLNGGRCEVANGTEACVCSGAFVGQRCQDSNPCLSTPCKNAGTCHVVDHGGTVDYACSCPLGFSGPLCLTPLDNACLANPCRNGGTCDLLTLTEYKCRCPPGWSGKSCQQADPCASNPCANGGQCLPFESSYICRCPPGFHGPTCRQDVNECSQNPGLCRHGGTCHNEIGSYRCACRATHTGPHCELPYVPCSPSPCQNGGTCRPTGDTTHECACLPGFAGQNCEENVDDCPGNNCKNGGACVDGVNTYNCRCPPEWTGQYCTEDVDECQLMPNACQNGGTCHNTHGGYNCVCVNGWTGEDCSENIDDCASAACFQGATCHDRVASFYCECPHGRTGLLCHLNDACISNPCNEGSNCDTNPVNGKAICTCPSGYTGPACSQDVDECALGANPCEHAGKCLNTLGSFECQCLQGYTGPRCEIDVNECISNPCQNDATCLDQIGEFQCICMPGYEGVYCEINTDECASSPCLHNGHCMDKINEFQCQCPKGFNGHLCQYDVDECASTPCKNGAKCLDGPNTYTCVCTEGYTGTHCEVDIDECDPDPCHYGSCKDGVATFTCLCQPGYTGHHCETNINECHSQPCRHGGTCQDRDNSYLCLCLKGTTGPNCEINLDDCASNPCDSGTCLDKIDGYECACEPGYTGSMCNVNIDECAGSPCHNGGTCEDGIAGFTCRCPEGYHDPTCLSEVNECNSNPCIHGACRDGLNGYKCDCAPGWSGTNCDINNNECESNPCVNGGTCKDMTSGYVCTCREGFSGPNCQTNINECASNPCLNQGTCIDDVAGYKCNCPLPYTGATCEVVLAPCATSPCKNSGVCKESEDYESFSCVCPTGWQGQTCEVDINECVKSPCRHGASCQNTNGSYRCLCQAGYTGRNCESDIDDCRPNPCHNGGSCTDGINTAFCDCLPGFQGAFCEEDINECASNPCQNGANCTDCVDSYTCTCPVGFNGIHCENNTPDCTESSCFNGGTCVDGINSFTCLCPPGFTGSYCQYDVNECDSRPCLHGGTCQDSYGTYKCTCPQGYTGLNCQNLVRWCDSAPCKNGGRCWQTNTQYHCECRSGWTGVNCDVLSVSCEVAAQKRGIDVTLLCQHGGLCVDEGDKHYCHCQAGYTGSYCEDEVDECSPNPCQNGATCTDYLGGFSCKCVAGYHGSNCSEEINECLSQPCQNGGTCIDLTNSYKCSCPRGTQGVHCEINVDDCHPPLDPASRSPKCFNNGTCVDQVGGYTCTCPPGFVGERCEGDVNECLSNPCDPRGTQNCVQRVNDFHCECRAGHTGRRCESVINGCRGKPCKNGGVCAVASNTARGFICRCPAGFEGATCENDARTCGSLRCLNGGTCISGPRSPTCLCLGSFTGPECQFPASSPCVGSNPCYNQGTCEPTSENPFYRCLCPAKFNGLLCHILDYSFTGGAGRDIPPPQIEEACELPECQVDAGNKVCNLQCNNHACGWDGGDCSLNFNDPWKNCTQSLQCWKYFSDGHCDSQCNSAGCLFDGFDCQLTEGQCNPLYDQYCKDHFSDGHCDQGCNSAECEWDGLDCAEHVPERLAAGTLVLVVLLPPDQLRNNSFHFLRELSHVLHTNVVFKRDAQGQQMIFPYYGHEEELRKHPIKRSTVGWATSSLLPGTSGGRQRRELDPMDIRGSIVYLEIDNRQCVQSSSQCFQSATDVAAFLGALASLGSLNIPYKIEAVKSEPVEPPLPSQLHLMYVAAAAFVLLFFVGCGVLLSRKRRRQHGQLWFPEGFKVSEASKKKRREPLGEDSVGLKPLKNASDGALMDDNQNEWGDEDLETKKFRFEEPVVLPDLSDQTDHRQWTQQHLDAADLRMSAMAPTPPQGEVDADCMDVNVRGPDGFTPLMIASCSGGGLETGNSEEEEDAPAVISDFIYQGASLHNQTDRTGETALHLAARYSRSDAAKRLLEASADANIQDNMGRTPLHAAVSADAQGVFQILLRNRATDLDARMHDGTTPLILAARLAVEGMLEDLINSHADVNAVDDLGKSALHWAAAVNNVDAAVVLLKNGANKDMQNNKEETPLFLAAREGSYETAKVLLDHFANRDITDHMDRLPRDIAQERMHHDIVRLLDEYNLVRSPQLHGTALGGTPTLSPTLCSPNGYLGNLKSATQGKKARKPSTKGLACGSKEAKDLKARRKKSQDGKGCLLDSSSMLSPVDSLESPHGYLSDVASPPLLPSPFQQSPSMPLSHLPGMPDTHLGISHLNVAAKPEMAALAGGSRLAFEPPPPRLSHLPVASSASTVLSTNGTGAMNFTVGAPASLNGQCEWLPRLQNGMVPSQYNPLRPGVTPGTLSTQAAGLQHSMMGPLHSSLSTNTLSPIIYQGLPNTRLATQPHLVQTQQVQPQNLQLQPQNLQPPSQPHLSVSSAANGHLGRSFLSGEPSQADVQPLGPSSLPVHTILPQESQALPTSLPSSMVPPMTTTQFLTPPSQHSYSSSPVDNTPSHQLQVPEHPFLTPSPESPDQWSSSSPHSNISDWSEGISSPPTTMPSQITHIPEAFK

B1: Jagged-1: Notch1 ligand; Myc-tagged murine Jagged-1 cDNA transiently transfected (protein)
chain: QFELEILSMQNVNGELQNGNCCGGVRNPGDRKCTRDECDTYFKVCLKEYQSRVTAGGPCSFGSGSTPVIGGNTFNLKASRGNDRNRIVLPFSFAWPRSYTLLVEAWDSSNDTIQPDSIIEKASHSGMINPSRQWQTLKQNTGIAHFEYQIRVTCDDHYYGFGCNKFCRPRDDFFGHYACDQNGNKTCMEGWMGPDCNKAICRQGCSPKHGSCKLPGDCRCQYGWQGLYCDKCIPHPGCVHGTCNEPWQCLCETNWGGQLCDKDLNYCGTHQPCLNRGTCSNTGPDKYQCSCPEGYSGPNCEIAEHACLSDPCHNRGSCKETSSGFECECSPGWTGPTCSTNIDDCSPNNCSHGGTCQDLVNGFKCVCPPQWTGKTCQLDANECEAKPCVNARSCKNLIASYYCDCLPGWMGQNCDININDCLGQCQNDASCRDLVNGYRCICPPGYAGDHCERDIDECASNPCLNGGHCQNEINRFQCLCPTGFSGNLCQLDIDYCEPNPCQNGAQCYNRASDYFCKCPEDYEGKNCSHLKDHCRTTTCEVIDSCTVAMASNDTPEGVRYISSNVCGPHGKCKSQSGGKFTCDCNKGFTGTYCHENINDCESNPCKNGGTCIDGVNSYKCICSDGWEGAHCENNINDCSQNPCHYGGTCRDLVNDFYCDCKNGWKGKTCHSRDSQCDEATCNNGGTCYDEVDTFKCMCPGGWEGTTCNIARNSSCLPNPCHNGGTCVVNGDSFTCVCKEGWEGPICTQNTNDCSPHPCYNSGTCVDGDNWYRCECAPGFAGPDCRININECQSSPCAFGATCVDEINGYQCICPPGHSGAKCHEVSGRSCITMGRVILDGAKWDDDCNTCQCLNGRVACSKVWCGPRPCRLHKSHNECPSGQSCIPVLDDQCFVRPCTGVGECRSSSLQPVKTKCTSDSYYQDNCANITFTFNKEMMSPGLTTEHICSELRNLNILKNVSAEYSIYIACEPSLSANNEIHVAISAEDIRDDGNPVKEITDKIIDLVSKRDGNSSLIAAVAEVRVQRRPLKNRTDFLVPLLSSVLTVAWVCCLVTAFYWCVRKRRKPSSHTHSAPEDNTTNNVREQLNQIKNPIEKHGANTVPIKDYENKNSKMSKIRTHNSEVEEDDMDKHQQKVRFAKQPVYTLVDREEKAPSGTPTKHPNWTNKQDNRDLESAQSLNRMEYIV
modifications: left off: small tags and cut ends
notes: Notch1 ligand; Myc-tagged murine Jagged-1 cDNA transiently transfected
B1 was tested. Which “Notch1 processing and production of NICD” value did it give?
Its value is “significantly enhanced”.
